Experiment [1] addresses T1, human CD3 on CD3+ Jurkat cells (human, UniProt P07766 23-207).
T1 construct: whole, on cells; Native CD3 complex on cells; the other CD3 chains are not specified for this assay; also called Human CD3+ Jurkat
As to the kind of experiment: flow cytometry, 100 nM IgG on CD3+ Jurkat cells, pH 6.0. As to the method:
(§1) Specificity of the anti-CD3 antibodies for human CD3+ Jurkat cells compared to CHO-S cells at pH 6.0 and 7.4 was determined using a FACS cell binding assay. Briefly, CD3+ human Jurkat cells and CHO-S cells were thawed and washed with cold PBSF buffer, pH 7.4 (PBS+0.1% BSA, pH 7.4). About 200,000 cells were aliquoted per well of a 96-well plate and pelleted by centrifugation (5 minutes at 500×g). The cells were washed with either PBSF pH 7.4 or PBSF pH 6.0 (PBS+0.1% BSA, pH 6.0), and then resuspended in 100 ul in either PBSF pH 7.4 or PBSF pH 6.0 with IgG antibody produced in yeast (100 nM). The mixture (cells+antibody) was incubated for 20 minutes on ice, then washed twice with either PBSF pH 7.4 or PBSF pH 6.0. Cells were resuspended in 50 ul of propidium iodide (1:500 dilution) and anti-human IgG-RPE (1:100 dilution) prepared in either PBSF pH 7.4 or PBSF pH 6.0, then incubated for 20 minutes on ice in the dark before cells were washed twice with either PBSF pH 7.4 or PBSF pH 6.0. Binding was analyzed on FACS Canto II.
(§2) Cell binding assays. CD3+ human Jurkat cells (ATCC) and CHO-S cells (Invitrogen/ThermoFisher) were thawed and washed with cold PBSF buffer, pH 7.4 (PBS+0.1% BSA, pH 7.4). About 200,000 cells were aliquoted per well of a 96-well plate (FACS Assay Plate VWR BD 353263) and pelleted by centrifugation (5 minutes at 500×g). The cells were washed with either PBSF pH 7.4 or PBSF pH 6.0 (PBS+0.1% BSA, pH 6.0), and then resuspended in 100 ul in either PBSF pH 7.4 or PBSF pH 6.0 with IgG antibody (100 nM) produced in yeast as described above. The mixture (cells+antibody) was incubated for 20 minutes on ice, then washed twice with either PBSF pH 7.4 or PBSF pH 6.0. Cells were resuspended in 50 ul of propidium iodide (Roche; 1:500 dilution) and anti-human IgG-RPE (Southern Biotech; 1:100 dilution) prepared in either PBSF pH 7.4 or PBSF pH 6.0, then incubated for 20 minutes on ice in the dark before cells were washed twice with either PBSF pH 7.4 or PBSF pH 6.0. Binding was analyzed on FACS Canto II.

The target in experiment [2] is T1, human CD3 on CD3+ Jurkat cells. Description: flow cytometry, 100 nM IgG on CD3+ Jurkat cells, pH 7.4. The procedure:
as §1, §2

For experiment [3] the target is unchanged. Description: flow cytometry on CD3+ Jurkat cells, ratio of MFI at pH 6.0 to pH 7.4. As to the method: as §1, §2
Background: A flow cytometer gives signals particle by particle.

T1 sequence (P07766 23-207): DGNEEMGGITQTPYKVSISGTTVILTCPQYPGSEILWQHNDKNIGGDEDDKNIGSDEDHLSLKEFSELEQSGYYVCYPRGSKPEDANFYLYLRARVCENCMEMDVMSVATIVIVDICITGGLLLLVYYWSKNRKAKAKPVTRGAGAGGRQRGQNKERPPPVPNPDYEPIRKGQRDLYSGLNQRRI

B1: SAD10318_P03_A09 (ADI-48608) (antibody, V domains shown)
VH: QVQLVQSGAEVKKPGASVKVSCKASGFNIKDYYMHWVRQAPGQRLEWMGWIDLENANTIYDAKFQGRVTITRDTSASTAYMELSSLRSEDTAVYYCARDHYGRYFYDHWGQGTLVTVSS
VL: DIVMTQSPDSLAVSLGERATINCKSSQSLLNARTGHNHLAWYQQKPGQPPKLLIYWASTRESGVPDRFSGSGSGTDFTLTISSLQAEDVAVYYCKQSYHHRTFGGGTKVEIK
notes: IgG; also called Ab203
Consider B1, for which the “MFI pH 6.0” value in experiment [1] came to 203 MFI. For the same molecule, the “MFI pH 7.4” value in experiment [2] was 45 MFI. Further, in experiment [3], the “MFI pH 6.0/MFI pH 7.4” value came to 4.5.

B2: SAD10318_P03_C09 (ADI-48609) (antibody, V domains shown)
VH: QVQLVQSGAEVKKPGASVKVSCKASGFNIKDYYMHWVRQAPGQRLEWMGWIDLENANTIYDAKFQGRVTITRDTSASTAYMELSSLRSEDTAVYYCARDAYHRYFYDHWGQGTLVTVSS
VL: DIVMTQSPDSLAVSLGERATINCKSSQSLLNAHTGKNHLAWYQQKPGQPPKLLIYWASTRESGVPDRFSGSGSGTDFTLTISSLQAEDVAVYYCKQSYHHRTFGGGTKVEIK
notes: IgG; also called Ab205
B2: in experiment [1], the “MFI pH 6.0” value came out at 346 MFI. Besides, the “MFI pH 7.4” value in experiment [2] worked out at 37 MFI. Further, the “MFI pH 6.0/MFI pH 7.4” value in experiment [3] amounted to 9.3.

B3: SAD10318_P04_B11 (ADI-48614) (antibody, V domains shown)
VH: QVQLVQSGAEVKKPGASVKVSCKASGFNIKDYYMHWVRQAPGQRLEWMGWIDLENANTIYDAKFQGRVTITRDTSASTAYMELSSLRSEDTAVYYCARDHYHRYFYDVWGQGTLVTVSS
VL: DIVMTQSPDSLAVSLGERATINCKSSQSLLNAHTGKNHLAWYQQKPGQPPKLLIYWASTRESGVPDRFSGSGSGTDFTLTISSLQAEDVAVYYCKQSYSRRTFGGGTKVEIK
notes: IgG; also called Ab217
B3: the “MFI pH 6.0” value in experiment [1] came to 148 MFI. In experiment [2], the “MFI pH 7.4” value worked out at 58 MFI. The “MFI pH 6.0/MFI pH 7.4” value in experiment [3] worked out at 2.6.

B4: SAD10318_P03_H08 (ADI-48607) (antibody, V domains shown)
VH: QVQLVQSGAEVKKPGASVKVSCKASGFNIKDYYMHWVRQAPGQRLEWMGWIDLENANTIYDAKFQGRVTITRDTSASTAYMELSSLRSEDTAVYYCARDAYHHYFYDVWGQGTLVTVSS
VL: DIVMTQSPDSLAVSLGERATINCKSSQSLLNARTGHNHLAWYQQKPGQPPKLLIYWASTRESGVPDRFSGSGSGTDFTLTISSLQAEDVAVYYCHQSHSRRTFGGGTKVEIK
notes: IgG; also called Ab202
Regarding B4, the “MFI pH 6.0” value in experiment [1] was found to be 86 MFI. Moreover, in experiment [2], the “MFI pH 7.4” value worked out at 52 MFI. In experiment [3], the “MFI pH 6.0/MFI pH 7.4” value is 1.7.

B5: SAD10318_P03_F08 (ADI-48606) (antibody, V domains shown)
VH: QVQLVQSGAEVKKPGASVKVSCKASGFNIKDYYMHWVRQAPGQRLEWMGWIDLENANTIYDAKFQGRVTITRDTSASTAYMELSSLRSEDTAVYYCARDHYHRYFYDVWGQGTLVTVSS
VL: DIVMTQSPDSLAVSLGERATINCKSSQSLLNAHTGKNHLAWYQQKPGQPPKLLIYWASTRESGVPDRFSGSGSGTDFTLTISSLQAEDVAVYYCKQSYSRRHFGGGTKVEIK
notes: IgG; also called Ab200
With B5, the “MFI pH 6.0” value in experiment [1] stood at 89 MFI. In addition, the “MFI pH 7.4” value in experiment [2] stood at 76 MFI. In experiment [3], the “MFI pH 6.0/MFI pH 7.4” value is 1.2.

B6: SAD10318_P03_E07 (ADI-48601) (antibody, V domains shown)
VH: QVQLVQSGAEVKKPGASVKVSCKASGFNIKDYYMHWVRQAPGQRLEWMGWIDLENANTIYDAKFQGRVTITRDTSASTAYMELSSLRSEDTAVYYCARDHYHRYFYDVWGQGTLVTVSS
VL: DIVMTQSPDSLAVSLGERATINCKSSQSLLNAHTGKNYLAWYQQKPGQPPKLLIYWASTRESGVPDRFSGSGSGTDFTLTISSLQAEDVAVYYCHQSHSRRTFGGGTKVEIK
notes: IgG; also called Ab191
On to B6, for which, in experiment [1], the “MFI pH 6.0” value turned out to be 1080 MFI. Besides, in experiment [2], the “MFI pH 7.4” value came to 52 MFI. Also, in experiment [3], the “MFI pH 6.0/MFI pH 7.4” value was determined as 20.7.

B7: SAD10318_P04_C10 (ADI-48612) (antibody, V domains shown)
VH: QVQLVQSGAEVKKPGASVKVSCKASGFNIKDYYMHWVRQAPGQRLEWMGWIDLENANTIYDAKFQGRVTITRDTSASTAYMELSSLRSEDTAVYYCARDAYGRYHHDVWGQGTLVTVSS
VL: DIVMTQSPDSLAVSLGERATINCKSSQSLLNARTGHNHLAWYQQKPGQPPKLLIYWASTRESGVPDRFSGSGSGTDFTLTISSLQAEDVAVYYCHQSYHRRTFGGGTKVEIK
notes: IgG; also called Ab210
On to B7, for which, in experiment [1], the “MFI pH 6.0” value came out at 42 MFI. The “MFI pH 7.4” value in experiment [2] came to 50 MFI. The “MFI pH 6.0/MFI pH 7.4” value in experiment [3] came to 0.8.

B8: SAD10318_P04_A12 (ADI-48618) (antibody, V domains shown)
VH: QVQLVQSGAEVKKPGASVKVSCKASGFNIKDYYMHWVRQAPGQRLEWMGWIDLENANTIYDAKFQGRVTITRDTSASTAYMELSSLRSEDTAVYYCARDAYHRHFYDVWGQGTLVTVSS
VL: DIVMTQSPDSLAVSLGERATINCKSSQSLLHPRTGKNYLAWYQQKPGQPPKLLIYWASTRESGVPDRFSGSGSGTDFTLTISSLQAEDVAVYYCKQSYHHRTFGGGTKVEIK
notes: IgG; also called Ab224
Regarding B8, the “MFI pH 6.0” value in experiment [1] is 170 MFI. Besides, the “MFI pH 7.4” value in experiment [2] stood at 41 MFI. In experiment [3], the “MFI pH 6.0/MFI pH 7.4” value was 4.2.

B9: SAD10318_P03_D09 (ADI-48610) (antibody, V domains shown)
VH: QVQLVQSGAEVKKPGASVKVSCKASGFNIKDYHMHWVRQAPGQRLEWMGWIDLENANTIYDAKFQGRVTITRDTSASTAYMELSSLRSEDTAVYYCARDAHHRYFYDVWGQGTLVTVSS
VL: DIVMTQSPDSLAVSLGERATINCKSSQSLLNAHTGKNHLAWYQQKPGQPPKLLIYWASTRESGVPDRFSGSGSGTDFTLTISSLQAEDVAVYYCKQSHSHRTFGGGTKVEIK
notes: IgG; also called Ab206
With B9, the “MFI pH 6.0” value in experiment [1] came out at 361 MFI. In addition, the “MFI pH 7.4” value in experiment [2] turned out to be 72 MFI. The “MFI pH 6.0/MFI pH 7.4” value in experiment [3] was 5.

B10: SAD10318_P03_E08 (ADI-48605) (antibody, V domains shown)
VH: QVQLVQSGAEVKKPGASVKVSCKASGFNIKDYYMHWVRQAPGQRLEWMGWIDLENANTIYDAKFQGRVTITRDTSASTAYMELSSLRSEDTAVYYCARDHYHRYFYDVWGQGTLVTVSS
VL: DIVMTQSPDSLAVSLGERATINCKSSQSLLNAHTGKNHLAWYQQKPGQPPKLLIYWASTRESGVPDRFSGSGSGTDFTLTISSLQAEDVAVYYCKQSYHRRHFGGGTKVEIK
notes: IgG; also called Ab199
On to B10, for which the “MFI pH 6.0” value in experiment [1] is 282 MFI. In experiment [2], the “MFI pH 7.4” value came out at 55 MFI. In addition, the “MFI pH 6.0/MFI pH 7.4” value in experiment [3] came to 5.2.

B11: SAD10318_P03_F07 (ADI-48602) (antibody, V domains shown)
VH: QVQLVQSGAEVKKPGASVKVSCKASGFNIKDYYMHWVRQAPGQRLEWMGWIDLENANTIYDAKFQGRVTITRDTSASTAYMELSSLRSEDTAVYYCARDAHGRYHYDVWGQGTLVTVSS
VL: DIVMTQSPDCLAVSLGERATINCKSSQSLLNARTGHNYLAWYQQKPGQPPKLLIYWASTRESGVPDRFSGSGSGTDFTLTISSLQAEDVAVYYCKQSHSHRTFGGGTKVEIK
notes: IgG; also called Ab192
Consider B11, for which the “MFI pH 6.0” value in experiment [1] turned out to be 202 MFI. Also, in experiment [2], the “MFI pH 7.4” value worked out at 34 MFI. In addition, the “MFI pH 6.0/MFI pH 7.4” value in experiment [3] stood at 5.9.

B12: SAD10318_P03_D08 (ADI-48604) (antibody, V domains shown)
VH: QVQLVQSGAEVKKPGASVKVSCKASGFNIKDYYMHWVRQAPGQRLEWMGWIDLENANTIYDAKFQGRVTITRDTAASTAYMELSSLRSEDTAVYYCARDHYHRYFYDHWGQGTLVTVSS
VL: DIVMTQSPDSLAVSLGERATINCKSSQSLLNAHTGKNHLAWYQQKPGQPPKLLIYWASTRESGVPDRFSGSGSGTDFTLTISSLQAEDVAVYYCKQSYSRRTFGGGTKVEIK
notes: IgG; also called Ab198
On to B12, for which the “MFI pH 6.0” value in experiment [1] amounted to 199 MFI. The “MFI pH 7.4” value in experiment [2] was 43 MFI. For the same molecule, the “MFI pH 6.0/MFI pH 7.4” value in experiment [3] worked out at 4.7.

B13: SAD10318_P03_C08 (ADI-48603) (antibody, V domains shown)
VH: QVQLVQSGAEVKKPGASVKVSCKASGFNIKDYYMHWVRQAPGQRLEWMGWIDLENANTIYDAKFQGRVTITRDTSASTAYMELSSLRSEDTAVYYCARDHYGHYFYDVWGQGTLVTVSS
VL: DIVMTQSPDSLAVSLGERATINCKSSQSLLHARTGKNHLAWYQQKPGQPPKLLIYWASTRESGVPDRFSGSGSGTDFTLTISSLQAEDVAVYYCKQSHSHRTFGGGTKVEIK
notes: IgG; also called Ab197
B13: the “MFI pH 6.0” value in experiment [1] stood at 177 MFI. Besides, the “MFI pH 7.4” value in experiment [2] amounted to 51 MFI. In experiment [3], the “MFI pH 6.0/MFI pH 7.4” value amounted to 3.5.
